Drawing on the Human Domainome abundance scans (Beltran et al. 2025), this text covers abundance fitness for 39 variants.

± gives the uncertainty stated by the source.

To fix the notation:
B1: SWI/SNF-related matrix-associated actin-dependent regulator of chromatin subfamily B member 1, residues 181 to 248; numbered along this chain, Q12824 (parent)
chain: SQPEVLVPIRLDMEIDGQKLRDAFTWNMNEKLMTPEMFSEILCDDLDLNPLTFVPAIASAIRQQIESY

This series covers variants of B1. As to the kind of experiment: abundance fitness (aPCA) (normalised: wild type 0, dead -1); higher = more abundant; growth selection in yeast, the domain comes from the species named. The following applies: Homo sapiens.
On to SQPEVLVPIRLDMEIDGQKLRDAFTWNMNEKLMTPEMFSEILCDDLDLNPLTFVPAIASAIRNQIESY [Q63N], for which the abundance fitness is -0.038 ± 0.075.

For the variant SQPEVLVPIRLDMEIDGQKLRDAFTWNMNEKLMTPEMFSEILCDDLDLNPLTFVPAIASAIRDQIESY [Q63D], the abundance fitness is -0.019 ± 0.082.

Regarding SQPEVLVPIRLDMEIDGQKLRDAFTWNMNEKLMTPEMFSEILCDDLDLNPLTFVPAIASAIFQQIESY [R62F], the abundance fitness was -0.69 ± 0.37.

Take SQPEVLVPIRLDMEIDGQKLRDAFTWNMNEKLMTPEMFSEILCDDLDLNPLTFVPAIASAILQQIESY [R62L]: the abundance fitness was -0.553 ± 0.075.

Take SQPEVHVPIRLDMEIDGQKLRDAFTWNMNEKLMTPEMFSEILCDDLDLNPLTFVPAIASAIRQQIESY [L6H]: the abundance fitness is -0.212 ± 0.13.

SQPEELVPIRLDMEIDGQKLRDAFTWNMNEKLMTPEMFSEILCDDLDLNPLTFVPAIASAIRQQIESY [V5E]: the abundance fitness was -0.103 ± 0.15.

For the variant SQPECLVPIRLDMEIDGQKLRDAFTWNMNEKLMTPEMFSEILCDDLDLNPLTFVPAIASAIRQQIESY [V5C], the abundance fitness turned out to be 0.116 ± 0.077.

For SQPEYLVPIRLDMEIDGQKLRDAFTWNMNEKLMTPEMFSEILCDDLDLNPLTFVPAIASAIRQQIESY [V5Y], the abundance fitness is -0.096 ± 0.14.

On to SQPEVLVPIRLDMEIDGQKLRDAFTWNMNEKLMTPEMFSEILCDDLDLNPLFFVPAIASAIRQQIESY [T52F], for which the abundance fitness was -0.412 ± 0.26.

With SQPEVLVPIRLDMEIDGQKLRDAFTWNMNEKLMTPEMFSEILCDDLDLNPLDFVPAIASAIRQQIESY [T52D], the abundance fitness is -0.168 ± 0.31.

SQPEVLVPIRLDMEIDGQKLRDAFTWNMNEKLMTPEMFSEILCDDLDLNPLVFVPAIASAIRQQIESY [T52V]: the abundance fitness was -0.005 ± 0.095.

On to SQPEVLVPIRLDMEIDGQKLRDAFTWNMNEKLMTPEMFSEILCDDLDLNPLRFVPAIASAIRQQIESY [T52R], for which the abundance fitness was -0.21 ± 0.057.

SQPEVLVPIRLDMEIDGQKLRDAFTWNMNEKLMTPEMFSEILCDDLDLNPLTLVPAIASAIRQQIESY [F53L]: the abundance fitness was -0.813 ± 0.34.

In the case of SQPEVLVPIRLDMEIWGQKLRDAFTWNMNEKLMTPEMFSEILCDDLDLNPLTFVPAIASAIRQQIESY [D16W], the abundance fitness was -0.822 ± 0.15.

Regarding SQPEVLVPIRLDMEIEGQKLRDAFTWNMNEKLMTPEMFSEILCDDLDLNPLTFVPAIASAIRQQIESY [D16E], the abundance fitness is -0.042 ± 0.06.

In the case of SQPEVLVPIRLDMEIDGQKLRDAFTWNMNEKLMTPEMFSEILCDDLDLNPLTFVPAIASAIRQQIEST [Y68T], the abundance fitness is -0.444 ± 0.15.

For SQPEVLVPIRLDMEIDGQKLRDAFTWNMNEKLMTPEMFSEILCDDLDLNPLTFVPAIASAIRQQIESM [Y68M], the abundance fitness is -0.641 ± 0.29.

For the variant SQPEVLVPIRLDMEIDGQKLRDAFTWNMNEKLMTPEMFSSILCDDLDLNPLTFVPAIASAIRQQIESY [E40S], the abundance fitness is -0.114 ± 0.045.

Take SQPEVLVPIRLDMEIDGQKLRDAFTWNMNEKLMTPEMFSEILCDDLTLNPLTFVPAIASAIRQQIESY [D47T]: the abundance fitness is -0.37 ± 0.059.

SQPEVLVPIRLDMEIDGQKLRDAFTWNMNEKLMTPEMFSEILCDDLDLNPLTFVPAIASAIRQQIEYY [S67Y]: the abundance fitness was -0.179 ± 0.12.

SQPEVLVPIRLDMEIDGQKLRDAFTWNMNEKLMTPEMFSEILCDDLDLNPLTFVPAIASAIRQQIEPY [S67P]: the abundance fitness is -0.055 ± 0.045.

In the case of SQPEVLVPIRLDMEIDGQKLRDAFTWNMNEKLMTPEMFSEILCDDLDLNPLTFVPAIASAIRQQIETY [S67T], the abundance fitness is -0.101 ± 0.071.

Turning to SQPEVLVPIRLDMEIDGQKLRDAFTWNMNEKLMTPEMFSEILCDDLDLNPSTFVPAIASAIRQQIESY [L51S], the abundance fitness was determined as 0.044 ± 0.065.

For the variant SQPEVLVPIRLDMEIDGQKLRDAFTWNMNEKLMTPEMFSEILCDDLDLNPLTFVPAIASAARQQIESY [I61A], the abundance fitness is -0.763 ± 0.1.

Turning to SQPEVLVPIRLDMEIDGQKLRDAFTWNMNEKLMTPEMFSEILCDDWDLNPLTFVPAIASAIRQQIESY [L46W], the abundance fitness is 0.017 ± 0.069.

On to SQPEVLVPIRLDMEIDGQKLRDAFTWNMNEKLMTPEMFSEILCDDHDLNPLTFVPAIASAIRQQIESY [L46H], for which the abundance fitness turned out to be 0.318 ± 0.14.

SQPEVLVPIRLDMEIDGQKLRDAFTWNMNEKLMTPEMFSEILCDDLDKNPLTFVPAIASAIRQQIESY [L48K]: the abundance fitness was -0.651 ± 0.12.

For SQPEVLVPIRLDMEIDGQKLRDAFTWNMNEKLMTPEMFSEILCDDLDFNPLTFVPAIASAIRQQIESY [L48F], the abundance fitness was -0.656 ± 0.17.

In the case of SQPEVLVPIRLDMEIDGQKLRDAFTWNMNEKLMTPEMFSEILCDDLDINPLTFVPAIASAIRQQIESY [L48I], the abundance fitness was -0.147 ± 0.14.

Consider SQPEVLVPHRLDMEIDGQKLRDAFTWNMNEKLMTPEMFSEILCDDLDLNPLTFVPAIASAIRQQIESY [I9H], for which the abundance fitness was -0.89 ± 0.25.

Take SQPEVLVPNRLDMEIDGQKLRDAFTWNMNEKLMTPEMFSEILCDDLDLNPLTFVPAIASAIRQQIESY [I9N]: the abundance fitness is -0.742 ± 0.25.

Take SQPEVLVPIRLDMEIDGQKLRDAFTWNMNEKLMTPEMFSEILCKDLDLNPLTFVPAIASAIRQQIESY [D44K]: the abundance fitness was found to be 0.177 ± 0.17.

Consider SQPEVLVPIRLDMEIDGQKLRDAFTWNMNEKLMCPEMFSEILCDDLDLNPLTFVPAIASAIRQQIESY [T34C], for which the abundance fitness is -0.831 ± 0.23.

With SQPEVLVPIRLDMEIDGQKLRDAFTWNMNEKLMVPEMFSEILCDDLDLNPLTFVPAIASAIRQQIESY [T34V], the abundance fitness was -0.35 ± 0.15.

SQPEVLIPIRLDMEIDGQKLRDAFTWNMNEKLMTPEMFSEILCDDLDLNPLTFVPAIASAIRQQIESY [V7I]: the abundance fitness was -0.049 ± 0.086.

Regarding SQPEVLVPIRLDMEIDGQKLRDAFTWNMNEKLMTPEMFSEILCDDLDLNPLTFVPAIASAIRQQWESY [I65W], the abundance fitness was -0.817 ± 0.16.

Regarding SQPEVLVPIRLDMEIDGQKKRDAFTWNMNEKLMTPEMFSEILCDDLDLNPLTFVPAIASAIRQQIESY [L20K], the abundance fitness was -0.598 ± 0.29.

In the case of SQPEVLVPIRLDMEIDGQKLRLAFTWNMNEKLMTPEMFSEILCDDLDLNPLTFVPAIASAIRQQIESY [D22L], the abundance fitness stood at 0.001 ± 0.12.

In the case of SQPEVLVPIRLDMEIDGQKLRDAFTWNMNEKLMTPEMFSEILCDDLDLNPLTFSPAIASAIRQQIESY [V54S], the abundance fitness was -0.324 ± 0.14.
